Measured values from patent publication US20220251215A1.

How the values were obtained:
[1] = target: HLA.A2 with NY-ESO-1: 157-165 on IM9 cells; assay: cell-based or functional assay
[2] = target: HLA.A2/hB2M/NY-ESO-1: 157-165 WT on 3T3 cells (human) (UniProt P04439); assay: cell-based or functional assay

Binder	Max Fold (RLU), NFAT-luciferase [1] [fold]	EC50 (#of APC cells), NFAT-luciferase [2] [APC cells]	Max Fold (RLU), NFAT-luciferase [2] [fold]
NY-ESO CAR-T 24958N VL-VH (protein, part only; not given: scFv linker, hinge, signalling domains, not shown: large carriers) chain, part: DIQMTQSPSSLSASVGDRVTITCRTSQSISRYLNWYQQKPGKAPKLLIFAASSLQSGVPSRFSGSGSGADFTLTISSLQPEDFATYYCQQSYSTPPITFGQGTRLEIKQVQLQESGPGLVKPSQTLSLTCTVSGGSIISDGYYWSWIRQHPGKGLEWIGYVDYSGNTYYNPSLKSRIIMSVDTSKNQFSLKLTSVTAADTAVYFCVREGPLRDAFEIWGQGTMVTVSS	0.9	19900	6.4
NY-ESO CAR-T 24959N VH-VL (protein, part only; not given: scFv linker, hinge, signalling domains, not shown: large carriers) chain, part: QLQLLESGPGLVKPSETLSLICTVSGGSIRGSSYYWGWIRQPPEKGLEWIGSIYSSGSTYYNPSLKSRVTISADTSKNQFSLKLSSVTAADTAVYYCARHGGITAVQLEFDPWGQGTLVTVSSDIQMTQSPSSLSASVGDRVTITCQASQDISNYLKWYQQKPGKAPKILIHDASNLEIGVPSRFSGSGAGTDFIFTISSLQPEDIGTYYCQQYDNLPITFGQGTRLEIK	1.1	14200	13.3

More lines, now with the values ahead:

Max Fold (RLU), NFAT-luciferase [1] [fold]	EC50 (#of APC cells), NFAT-luciferase [2] [APC cells]	Max Fold (RLU), NFAT-luciferase [2] [fold]	Binder
0.8	24000	28.6	NY-ESO CAR-T 24959N VL-VH (protein, part only; not given: scFv linker, hinge, signalling domains, not shown: large carriers) chain, part: DIQMTQSPSSLSASVGDRVTITCQASQDISNYLKWYQQKPGKAPKILIHDASNLEIGVPSRFSGSGAGTDFIFTISSLQPEDIGTYYCQQYDNLPITFGQGTRLEIKQLQLLESGPGLVKPSETLSLICTVSGGSIRGSSYYWGWIRQPPEKGLEWIGSIYSSGSTYYNPSLKSRVTISADTSKNQFSLKLSSVTAADTAVYYCARHGGITAVQLEFDPWGQGTLVTVSS
1	24500	6.7	NY-ESO CAR-T 24958N VH-VL (protein, part only; not given: scFv linker, hinge, signalling domains, not shown: large carriers) chain, part: QVQLQESGPGLVKPSQTLSLTCTVSGGSIISDGYYWSWIRQHPGKGLEWIGYVDYSGNTYYNPSLKSRIIMSVDTSKNQFSLKLTSVTAADTAVYFCVREGPLRDAFEIWGQGTMVTVSSDIQMTQSPSSLSASVGDRVTITCRTSQSISRYLNWYQQKPGKAPKLLIFAASSLQSGVPSRFSGSGSGADFTLTISSLQPEDFATYYCQQSYSTPPITFGQGTRLEIK
